Source: article PMC12748766, “Structural basis for human chondroitin sulfate chain polymerization” (Nature Communications, 2025)

What was measured:
Assay in all cases: mass photometry; Refeyn OneMP; purified complexes diluted in 20 mM MES pH 6.5, 150 mM NaCl to around 25 nM
Settings in all cases: both partners purified
[1] = target: T1, CHSY3^H831A, secreted construct aa157-aa882 (human, UniProt Q70JA7 157-882, H831A)
T1 construct: CHSY3, human, UniProt Q70JA7, residues 157-882, mutation in the C-terminal GT domain; source: Freestyle 293-F cells, co-transfected with CHPF, secreted; purified by the same protocol as the wild-type complexes; not shown: SUMO, N-terminal, cleaved; His6, N-terminal, cleaved
T1 sequence (looked up): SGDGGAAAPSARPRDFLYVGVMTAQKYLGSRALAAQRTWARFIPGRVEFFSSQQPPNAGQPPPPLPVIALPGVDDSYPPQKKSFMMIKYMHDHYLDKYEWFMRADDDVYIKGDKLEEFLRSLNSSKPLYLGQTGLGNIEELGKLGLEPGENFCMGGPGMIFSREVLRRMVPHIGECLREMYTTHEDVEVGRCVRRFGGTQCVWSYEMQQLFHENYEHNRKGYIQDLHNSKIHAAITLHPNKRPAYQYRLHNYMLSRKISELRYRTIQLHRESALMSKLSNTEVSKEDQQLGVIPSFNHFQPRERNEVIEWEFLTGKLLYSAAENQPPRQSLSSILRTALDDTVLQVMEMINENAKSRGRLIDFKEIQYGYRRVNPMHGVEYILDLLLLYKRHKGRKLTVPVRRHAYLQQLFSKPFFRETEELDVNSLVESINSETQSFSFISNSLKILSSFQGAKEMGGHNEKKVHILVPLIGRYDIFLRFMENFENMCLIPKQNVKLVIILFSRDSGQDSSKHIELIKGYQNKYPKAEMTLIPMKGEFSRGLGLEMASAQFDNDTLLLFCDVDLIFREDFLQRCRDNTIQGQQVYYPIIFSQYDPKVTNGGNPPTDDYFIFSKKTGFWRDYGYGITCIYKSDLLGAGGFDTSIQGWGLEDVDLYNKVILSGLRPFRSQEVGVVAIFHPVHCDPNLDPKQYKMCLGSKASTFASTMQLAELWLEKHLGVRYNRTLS

[2] = target: T2, Chondroitin Sulfate Synthase-1 (CHSY1), secreted N-terminally truncated construct aa68-aa802 (human, UniProt Q86X52 68-802)
T2 construct: CHSY1, human, UniProt Q86X52, residues 68-802 (membrane-spanning helix removed); Construct in pHR-CMV-TetO2 with an N-terminal chicken RPTP sigma signal peptide, SUMO, 6x His and a 3C site; no cleavage site before the C-terminal Avi tag; source: Freestyle 293-F cells, co-transfected, secreted; purified from the supernatant (HisTrap, 3C protease, second HisTrap); not shown: SUMO, N-terminal, …
T2 sequence (looked up): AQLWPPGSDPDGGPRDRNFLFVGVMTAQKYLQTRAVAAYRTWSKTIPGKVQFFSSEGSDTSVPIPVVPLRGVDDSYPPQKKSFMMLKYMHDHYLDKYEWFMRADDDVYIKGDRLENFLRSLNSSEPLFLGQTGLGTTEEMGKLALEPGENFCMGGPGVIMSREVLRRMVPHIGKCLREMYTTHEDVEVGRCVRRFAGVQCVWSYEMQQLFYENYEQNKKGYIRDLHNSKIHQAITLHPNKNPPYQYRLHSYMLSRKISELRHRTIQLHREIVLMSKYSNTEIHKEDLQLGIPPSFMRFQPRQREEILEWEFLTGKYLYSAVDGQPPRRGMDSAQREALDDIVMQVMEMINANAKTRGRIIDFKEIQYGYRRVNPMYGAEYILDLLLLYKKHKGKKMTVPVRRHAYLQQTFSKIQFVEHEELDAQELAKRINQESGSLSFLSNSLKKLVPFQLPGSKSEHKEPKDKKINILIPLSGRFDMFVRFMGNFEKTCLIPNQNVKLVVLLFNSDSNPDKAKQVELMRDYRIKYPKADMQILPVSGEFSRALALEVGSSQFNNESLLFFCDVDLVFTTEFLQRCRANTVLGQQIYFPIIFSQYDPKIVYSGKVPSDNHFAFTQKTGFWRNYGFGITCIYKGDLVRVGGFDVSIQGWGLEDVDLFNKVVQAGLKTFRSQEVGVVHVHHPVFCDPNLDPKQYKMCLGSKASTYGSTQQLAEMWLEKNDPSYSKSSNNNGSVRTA

[3] = target: T3, CHSY3^D718N/D720N, secreted construct aa157-aa882 (human, UniProt Q70JA7 157-882, D718N | D720N)
T3 construct: CHSY3, human, UniProt Q70JA7, residues 157-882, mutations in the DxD motif of the C-terminal GT domain; source: Freestyle 293-F cells, co-transfected with CHPF, secreted; purified by the same protocol as the wild-type complexes; not shown: SUMO, N-terminal, cleaved; His6, N-terminal, cleaved
T3 sequence (looked up): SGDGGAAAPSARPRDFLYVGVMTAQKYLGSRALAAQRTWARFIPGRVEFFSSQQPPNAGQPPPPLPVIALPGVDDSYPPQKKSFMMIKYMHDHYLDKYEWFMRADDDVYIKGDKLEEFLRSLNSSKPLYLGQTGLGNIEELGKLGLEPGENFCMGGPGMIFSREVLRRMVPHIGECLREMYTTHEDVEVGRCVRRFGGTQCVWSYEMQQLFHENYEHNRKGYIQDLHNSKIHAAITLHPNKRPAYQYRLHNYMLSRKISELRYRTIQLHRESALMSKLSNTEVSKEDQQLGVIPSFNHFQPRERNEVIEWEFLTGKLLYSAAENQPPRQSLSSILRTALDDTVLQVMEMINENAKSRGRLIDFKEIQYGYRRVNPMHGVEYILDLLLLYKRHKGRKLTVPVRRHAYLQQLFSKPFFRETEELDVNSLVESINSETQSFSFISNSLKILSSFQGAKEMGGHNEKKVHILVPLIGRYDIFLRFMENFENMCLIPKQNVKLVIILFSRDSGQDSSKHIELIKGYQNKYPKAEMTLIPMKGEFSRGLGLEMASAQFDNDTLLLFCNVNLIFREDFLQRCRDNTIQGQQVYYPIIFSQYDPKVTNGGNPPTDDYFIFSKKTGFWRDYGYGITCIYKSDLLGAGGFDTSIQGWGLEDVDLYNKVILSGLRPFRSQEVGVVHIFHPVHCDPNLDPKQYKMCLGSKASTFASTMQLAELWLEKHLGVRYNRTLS

Measured: binding result

B1: Chondroitin Polymerizing Factor (CHPF), secreted N-terminally truncated construct aa81-aa775 (domain or fragment, human, UniProt Q8IZ52 81-775, looked up)
chain: GENWEPRVLPYHPAQPGQAAKKAVRTRYISTELGIRQRLLVAVLTSQTTLPTLGVAVNRTLGHRLERVVFLTGARGRRAPPGMAVVTLGEERPIGHLHLALRHLLEQHGDDFDWFFLVPDTTYTEAHGLARLTGHLSLASAAHLYLGRPQDFIGGEPTPGRYCHGGFGVLLSRMLLQQLRPHLEGCRNDIVSARPDEWLGRCILDATGVGCTGDHEGVHYSHLELSPGEPVQEGDPHFRSALTAHPVRDPVHMYQLHKAFARAELERTYQEIQELQWEIQNTSHLAVDGDQAAAWPVGIPAPSRPASRFEVLRWDYFTEQHAFSCADGSPRCPLRGADRADVADVLGTALEELNRRYHPALRLQKQQLVNGYRRFDPARGMEYTLDLQLEALTPQGGRRPLTRRVQLLRPLSRVEILPVPYVTEASRLTVLLPLAAAERDLAPGFLEAFATAALEPGDAAAALTLLLLYEPRQAQRVAHADVFAPVKAHVAELERRFPGARVPWLSVQTAAPSPLRLMDLLSKKHPLDTLFLLAGPDTVLTPDFLNRCRMHAISGWQAFFPMHFQAFHPAVAPPQGPGPPELGRDTGRFDRQAASEACFYNSDYVAARGRLAAASEQEEELLESLDVYELFLHFSSLHVLRAVEPALLQRYRAQTCSARLSEDLYHRCLQSVLEGLGSRTQLAMLLFEQEQGNST
notes: CHPF, human, UniProt Q8IZ52, residues 81-775 (membrane-spanning helix removed); Construct in pHR-CMV-TetO2 with an N-terminal chicken RPTP sigma signal peptide, SUMO, 6x His and a 3C site; a second 3C site stands before the C-terminal twin streptavidin tag; also called Chondroitin sulfate synthase 2; source: Freestyle 293-F cells, co-transfected, secreted; purified from the supernatant (HisTrap, …)
binds: [1] | [2] | [3]
